According to paper PMC4177672, “The Vip1 Inositol Polyphosphate Kinase Family Regulates Polarized Growth and Modulates the Microtubule Cytoskeleton in Fungi” (PLoS Genetics, 2014):

What was measured:
GST-Vip1^1-535 = molecular target: T1, GST-Vip1^1-535 (Saccharomyces cerevisiae, UniProt Q06685); assay: IP7 formation, PAGE with Toluidine Blue stain; format: biochemical; conditions: 1 µg protein; positive control enzyme
T1 construct: kinase domain residues 1-535, GST tag kept, E. coli Rosetta, purified
T1 sequence (Q06685 1-535): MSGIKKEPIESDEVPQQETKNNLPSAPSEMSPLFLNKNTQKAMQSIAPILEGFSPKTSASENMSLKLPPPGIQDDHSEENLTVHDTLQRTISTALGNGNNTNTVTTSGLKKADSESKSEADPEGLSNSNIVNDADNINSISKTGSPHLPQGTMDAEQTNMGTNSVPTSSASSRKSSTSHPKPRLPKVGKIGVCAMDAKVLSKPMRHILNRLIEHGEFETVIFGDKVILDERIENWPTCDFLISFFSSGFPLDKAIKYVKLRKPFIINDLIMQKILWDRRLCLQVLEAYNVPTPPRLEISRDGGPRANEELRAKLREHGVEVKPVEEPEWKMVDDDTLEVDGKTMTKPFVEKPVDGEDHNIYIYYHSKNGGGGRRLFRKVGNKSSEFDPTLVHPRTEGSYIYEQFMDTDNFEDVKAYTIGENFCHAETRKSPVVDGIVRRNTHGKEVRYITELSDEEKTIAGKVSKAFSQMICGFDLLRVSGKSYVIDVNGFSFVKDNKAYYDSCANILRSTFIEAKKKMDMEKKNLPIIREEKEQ

[1] = tested on: O=P(O)(O)O[C@H]1[C@H](OP(=O)(O)O)[C@@H](OP(=O)(O)O)[C@H](OP(=O)(O)O)[C@@H](OP(=O)(O)O)[C@H]1OP(=O)(O)O; assay: purified protein; conditions: 0-300 µM IP6; ATP-dependent; 2 µg protein; 6 h

| Compound | IP7 formation, PAGE with Toluidine Blue stain (GST-Vip1^1-535) | Km [1] [µM] |
| --- | --- | --- |
| O=P(O)(O)O[C@H]1[C@H](OP(=O)(O)O)[C@@H](OP(=O)(O)O)[C@H](OP(=O)(O)O)[C@@H](OP(=O)(O)O)[C@H]1OP(=O)(O)O [IP6] | S. cerevisiae Vip1 for which enzymatic activity had been demonstrated was used as a positive control | – |
| GST-Asp1 (full length) (Schizosaccharomyces pombe 972h-) | – | 58.18 |
| GST-Asp1 (full length) (Schizosaccharomyces pombe 972h-; H397A) | – | 57.32 |
